Data as given in patent US20250295734A1, “ANTICOAGULANT PROTEINS AND THEIR USE FOR TREATING DISEASES ASSOCIATED WITH THE ACTIVATION OF NEUTROPHILS” (BIOXODES, priority 2018, published 2025).
Several values for one entry are separate records, joined by “and”; a condition that tells them apart may be missing. Equal values may be shown once. Entries after “also recorded” stand apart in the source; their conditions may differ.

What was measured:
[1] = system: extrinsic or common pathway; settings: in vitro; cited from earlier work
human washed platelets = assay: In vitro platelet aggregation assay; format: cell-based
Method: Blood from healthy human donors, who had not taken anti-platelet agents within the 15 days prior to collection, was collected in citrated tubes and centrifuged for 13 min at 200 g. The platelet-rich plasma was collected and centrifuged for 13 min at 900 g in Tyrode buffer (138 mM NaCl, 2.9 mM KCl, 12 mM NaHCO3, 5.5 mM glucose, 1.8 mM CaCl2 and 0.4 mM MgCl2, pH 7.4) containing 0.2% BSA, apyrase 0.02 U/mL and PGI2 500 nM. Washed platelets were resuspended in the Tyrode/BSA 0.2%/apyrase/PGI2 solution and centrifuged at 900 g for 13 min. Platelets were resuspended in a Tyrode/BSA 0.2% solution at a concentration of 3.10^8 platelets/mL. Platelets were kept at 37° C. for 30 min in a solution containing […]. Next, platelets were incubated at 37° C. under agitation for 5 to 10 minutes in an aggregometer APACT 4004 with ADP (adenosine diphosphate), TRAP (Thrombin Receptor-Activating Peptide) and/or Ir-CPI.
The effect of Ir-CPI on platelet aggregation was assessed in vitro by using isolated human washed platelets (n=1).

[2] = system: neutrophil elastase activity; assay: Laser-induced vessel wall injury: neutrophil elastase activity; format: in vivo, mice (C57BL/6JRj); settings: iv bolus 20.5 mg/kg + infusion 3.7 mg/kg/h
Method: Ir-CPI was administered intravenously as a bolus (20.5 mg/kg) immediately followed by a continuous infusion at a rate of 3.7 mg/kg/h (see Table 1 below). Due to fast distribution and elimination of Ir-CPI in the mice (t1/2α=14 min and t1/2β=236 min), the combination of the bolus and the infusion was chosen in order to maintain a constant Ir-CPI concentration into the blood.
Vessel wall injury was induced with a Micropoint Laser System (Photonics Instruments) focused through the microscope objective, parfocal with the focal plane and aimed at the vessel wall, as previously described (Dubois et al., 2006). Typically, 1 or 2 pulses were required to induce vessel wall injury.
Multiple thrombi were studied in a single mouse, with new thrombi formed upstream of earlier thrombi to avoid any contribution from thrombi generated earlier in the animal under study. Laser-beam injuries were done at various time after the start of test-item administration (+5 min up to about 150 min after bolus administration of Ir-CPI or NaCl (control)).
Image analysis was performed using Slidebook 4.1 (Intelligent Imaging Innovations). Fluorescence data were captured digitally at up to 50 frames per second and analyzed as previously described (Falati et al., 2002). The kinetics of thrombus formation were analyzed by determining median fluorescence values over time in a minimum number of 20 thrombi. […]

FXII zymogen = target: T1, FXII zymogen (Homo sapiens, UniProt P00748); settings: cited from earlier work
T1 sequence (P00748 20-615): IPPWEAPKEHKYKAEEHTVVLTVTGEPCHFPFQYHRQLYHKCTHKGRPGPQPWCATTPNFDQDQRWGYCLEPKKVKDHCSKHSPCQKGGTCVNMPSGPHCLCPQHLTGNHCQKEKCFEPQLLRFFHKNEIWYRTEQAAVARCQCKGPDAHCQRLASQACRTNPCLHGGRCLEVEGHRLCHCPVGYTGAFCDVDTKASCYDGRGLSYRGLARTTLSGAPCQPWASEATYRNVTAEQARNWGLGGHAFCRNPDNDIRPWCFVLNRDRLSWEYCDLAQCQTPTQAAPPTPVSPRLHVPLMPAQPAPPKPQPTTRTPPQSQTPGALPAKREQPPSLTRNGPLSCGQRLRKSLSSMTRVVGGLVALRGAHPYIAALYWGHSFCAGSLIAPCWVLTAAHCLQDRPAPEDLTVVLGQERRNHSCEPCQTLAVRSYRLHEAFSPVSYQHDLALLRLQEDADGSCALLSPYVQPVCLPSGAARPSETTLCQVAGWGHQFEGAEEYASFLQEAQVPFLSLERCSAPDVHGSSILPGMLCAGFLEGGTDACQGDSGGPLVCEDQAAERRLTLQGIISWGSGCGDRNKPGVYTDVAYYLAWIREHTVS

[3] = Ir-CPI 500 μg/100 μL injected alone and then TRAP 20 μM at about 230 sec
[4] = TRAP 20 μM + Ir-CPI 500 μg/100 μL injected together
[5] = agent alone (TRAP 20 μM, ADP 20 μM or Ir-CPI 500 μg/100 μL), n=1

B1: Ir-CPI: Ixodes ricinus salivary gland polypeptide, contact phase inhibitor, MW=7660 Da; sequence SEQ ID NO: 1 or SEQ ID NO: 2 (protein)
chain: ANHKGRGRPAKCKLPPDDGPCRARIPSYYFDRKTKTCKEFMYGGCEGNENNFENITTCQEECRAKKV
For B1, the “Prothrombin Time (PT)” value [1] is given as “no effect”, the “Thrombin Time (TT)” value [1] is given as “no effect” and the “dilute Russell's Viper Venom time (dRVVT)” value [1] is given as “no effect”. The “Aggregation Latency” value (human washed platelets; [3]) was 231.2 s, the “Aggregation Max” value (human washed platelets; [3]) was 73.5% and the “Aggregation Slope” value (human washed platelets; [3]) was 31.1 %/min. For the same molecule, the “activation of platelet aggregation” value (human washed platelets; Ir-CPI alone added to washed platelets) was “did not activate platelet aggregation”, the “effect on TRAP-induced platelet aggregation” value (human washed platelets; Ir-CPI and TRAP, compared to TRAP alone) was “did not significantly modify platelet aggregation; also recorded: does not inhibit platelet aggregation” and the “Aggregation Latency” value (human washed platelets; [4]) was 98.6 s. For the same molecule, the “Aggregation Max” value (human washed platelets; [4]) was 71.7% and 71.8%, the “Aggregation Slope” value (human washed platelets; [4]) was 35.1 %/min and the “Aggregation Latency” value (human washed platelets; [5]) was 70.0 s. The “Aggregation Max” value (human washed platelets; [5]) was 4.1%, the “Aggregation Slope” value (human washed platelets; [5]) was 16.2 %/min and the “signal corresponding to neutrophil elastase activity compared to control mice” value [2] was “drastically reduced”. For the same molecule, the “binding to FXII zymogen” value (FXII zymogen) was “but not to their zymogen forms; also recorded: unable to bind directly”.
